Results taken from PMC2900298.

Target: HSV1(F) viral capsids treated with 0.5 M KCl (HSV1 strain F) (UniProt P10219)
Experiment: immunoelectron microscopy (immunogold labelling of capsids, negative staining); capsids incubated with […] pig brain cytosol, adsorbed on grids, labelled with antibodies against MAP subunits and protein-A gold; gold per mono-disperse capsid counted, labelling of capsids in buffer subtracted as background

Chain of UniProt P10219 (P10219 whole entry, looked up): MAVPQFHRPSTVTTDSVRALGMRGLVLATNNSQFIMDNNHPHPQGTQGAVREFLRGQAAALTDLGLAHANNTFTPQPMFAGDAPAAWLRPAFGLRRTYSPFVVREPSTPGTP

| Substance | gold particles per capsid above background [gold/capsid] | percent of capsids with more than one complex, background taken into account [%] | percent of capsids with two labels [%] |
| --- | --- | --- | --- |
| cytoplasmic dynein of pig brain cytosol (complex) | 0.75 | 20 | 40 |
| kinesin-1 of pig brain (complex) | 0.5 | 10 | 20 |
| kinesin-2 of pig brain cytosol (complex) | 0.5 |  | 8 |
